Numbering of substitutions follows the chain as printed. Numbers in names are those of the source. Where “and” joins values, the source holds several entries; their conditions need not be identical. Identical values can stand only once. Each block holds one molecule with its values, some of them ahead of it.
How the values were obtained:
[1] = molecular target: stab1 cystatin C (L47C/G69C), disulfide-stabilized monomer (human) (UniProt P01034); experiment: MALDI-TOF MS; isolated oligomers 1 mg/ml in 150 mM ammonium bicarbonate pH 7.8 (nonreducing), matrix 2,6-dihydroxyacetophenone
[2] = molecular target: Mammalian legumain (EC 3.4.22.34) (pig)
[3] = molecular target: stab1 cystatin C (L47C/G69C), disulfide-stabilized monomer (human) (UniProt P01034); experiment: native gel or EMSA; agarose gel electrophoresis under native conditions; stab1 cystatin C 0.2 mg/ml (15 uM) in PBS pH 7.4, 0.5 or 1.0 M GdnHCl, 1:1 molar equivalents of DTT, 24 h at 40 C
[4] = molecular target: the molecule itself; experiment: SEC; SEC at the end of the purification of refolded L68Q cystatin C
[5] = molecular target: the molecule itself; experiment: SDS-PAGE in 0.1% SDS of unboiled, nonreduced samples; 1 mg/ml in 50 mM sodium acetate pH 4.0, 100 mM NaCl, 48 C, 900 rpm, 4 h; gel run at 4 C, silver-stained

stoichiometry N (monomeric subunits) [1]: 2
Molecule: stab1 cystatin C (L47C/G69C), disulfide-stabilized monomer (from UniProt P01034 27-146)

inhibitory capacity toward legumain (fluorogenic substrate Z-Ala-Ala-Asn-AMC), equal mass concentrations [2]: 93%
Molecule: stabilized cystatin C decamer (stab1, L47C/G69C) (from UniProt P01034 27-146) (complex)

inhibitory capacity toward legumain (fluorogenic substrate Z-Ala-Ala-Asn-AMC), equal mass concentrations [2]: 99%
Molecule: stabilized cystatin C trimer (stab1, L47C/G69C) (from UniProt P01034 27-146) (complex)

inhibitory capacity toward legumain (fluorogenic substrate Z-Ala-Ala-Asn-AMC), equal mass concentrations [2]: 102%
Molecule: stabilized cystatin C dimer (stab1, L47C/G69C) (from UniProt P01034 27-146) (complex)

stoichiometry N (monomeric subunits) [1]: 4 and 3
stoichiometry N [3]: 2
Molecule: stab1 cystatin C (L47C/G69C), disulfide-stabilized monomer (from UniProt P01034 27-146) (natural protein)

inhibitory capacity toward legumain (fluorogenic substrate Z-Ala-Ala-Asn-AMC), equal mass concentrations [2]: 55%
B1: stabilized cystatin C high molecular weight oligomers (stab1, L47C/G69C) (complex)
chain: SSPGKPPRLVGGPMDASVEEEGVRRALDFAVGEYNKASNDMYHSRACQVVRARKQIVAGVNYFLDVELCRTTCTKTQPNLDNCPFHDQPHLKRKAFCSFQIYAVPWQGTMTLSKSTCQDA
modifications: intermolecular disulfide bridges (the paper: most likely Cys47-Cys69)

B2: L68Q cystatin C (natural protein, human, UniProt P01034 27-146, looked up)
chain: B1 chain with C47L, L68Q, C69G
notes: cystatin C, human, hereditary cystatin C amyloid angiopathy variant L68Q; also called L68Q cystatin C variant; disease-associated L68Q variant
stoichiometry N [4]: 2

B3: human wild type cystatin C (natural protein, UniProt P01034 27-146, looked up)
chain: B1 chain with C47L, C69G
notes: cystatin C, human, wild type; Mr 13,343; also called wt cystatin C; wt monomer; source: E. coli periplasmic extract, purified (ion-exchange, SEC), lyophilized
binding result [5]: binds

Reference: article PMC3675580, “Stabilization, Characterization, and Selective Removal of Cystatin C Amyloid Oligomers*” (The Journal of Biological Chemistry, 2013)
